Experimental data from US20230357348A1 (AstraZeneca / MedImmune, published 2023).
Starred links: 1 amine or outer side, 2 acyl side, 3 side chain; linkers in the order of their positions; H or OH if unused. Non-standard residues stand in square brackets, D forms with d. Groups on a side chain read outwards from the residue. No end group written: not given here. *: point of attachment. C20 diacid = O=C(O)CCCCCCCCCCCCCCCCCCC(=O)*; C18 diacid = O=C(O)CCCCCCCCCCCCCCCCC(=O)*; γGlu = O=C(O)[C@H](CCC(=O)[*:2])N[*:1]; αMeF = C[C@](N)(Cc1ccccc1)C(=O)O; AEEA = NCCOCCOCC(=O)O; Aib = CC(C)(N)C(=O)O

B1: Peptide 440 (peptide)
peptide: H[Aib]QGTFTSDVSK[αMeF]LDKK([AEEA-AEEA-γGlu-C20 diacid])RARDFVRWLL[Aib]E-OH
modifications: N-terminus assumed
SMILES: CC(C)C[C@H](NC(=O)[C@H](Cc1c[nH]c2ccccc12)NC(=O)[C@H](CCCNC(=N)N)NC(=O)[C@@H](NC(=O)[C@H](Cc1ccccc1)NC(=O)[C@H](CC(=O)O)NC(=O)[C@H](CCCNC(=N)N)NC(=O)[C@H](C)NC(=O)[C@H](CCCNC(=N)N)NC(=O)[C@H](CCCCNC(=O)COCCOCCNC(=O)COCCOCCNC(=O)CC[C@H](NC(=O)CCCCCCCCCCCCCCCCCCC(=O)O)C(=O)O)NC(=O)[C@H](CCCCN)NC(=O)[C@H](CC(=O)O)NC(=O)[C@H](CC(C)C)NC(=O)[C@](C)(Cc1ccccc1)NC(=O)[C@H](CCCCN)NC(=O)[C@H](CO)NC(=O)[C@@H](NC(=O)[C@H](CC(=O)O)NC(=O)[C@H](CO)NC(=O)[C@@H](NC(=O)[C@H](Cc1ccccc1)NC(=O)[C@@H](NC(=O)CNC(=O)[C@H](CCC(N)=O)NC(=O)C(C)(C)NC(=O)[C@@H](N)Cc1c[nH]cn1)[C@@H](C)O)[C@@H](C)O)C(C)C)C(C)C)C(=O)N[C@@H](CC(C)C)C(=O)NC(C)(C)C(=O)N[C@@H](CCC(=O)O)C(=O)O
B2: Peptide 438 (peptide)
peptide: H[Aib]QGTFTSDVSK[αMeF]LDKK([AEEA-AEEA-γGlu-C18 diacid])RAQDFVRWLEA[Aib]G-NH2
modifications: N-terminus assumed
SMILES: CC(C)C[C@H](NC(=O)[C@H](Cc1c[nH]c2ccccc12)NC(=O)[C@H](CCCNC(=N)N)NC(=O)[C@@H](NC(=O)[C@H](Cc1ccccc1)NC(=O)[C@H](CC(=O)O)NC(=O)[C@H](CCC(N)=O)NC(=O)[C@H](C)NC(=O)[C@H](CCCNC(=N)N)NC(=O)[C@H](CCCCNC(=O)COCCOCCNC(=O)COCCOCCNC(=O)CC[C@H](NC(=O)CCCCCCCCCCCCCCCCC(=O)O)C(=O)O)NC(=O)[C@H](CCCCN)NC(=O)[C@H](CC(=O)O)NC(=O)[C@H](CC(C)C)NC(=O)[C@](C)(Cc1ccccc1)NC(=O)[C@H](CCCCN)NC(=O)[C@H](CO)NC(=O)[C@@H](NC(=O)[C@H](CC(=O)O)NC(=O)[C@H](CO)NC(=O)[C@@H](NC(=O)[C@H](Cc1ccccc1)NC(=O)[C@@H](NC(=O)CNC(=O)[C@H](CCC(N)=O)NC(=O)C(C)(C)NC(=O)[C@@H](N)Cc1c[nH]cn1)[C@@H](C)O)[C@@H](C)O)C(C)C)C(C)C)C(=O)N[C@@H](CCC(=O)O)C(=O)N[C@@H](C)C(=O)NC(C)(C)C(=O)NCC(N)=O
B3: Peptide 439 (peptide)
peptide: H[Aib]QGTFTSDVSK[αMeF]LDRK([AEEA-AEEA-γGlu-C18 diacid])RAQDFVRWLL[Aib]E-NH2
modifications: N-terminus assumed
SMILES: CC(C)C[C@H](NC(=O)[C@H](Cc1c[nH]c2ccccc12)NC(=O)[C@H](CCCNC(=N)N)NC(=O)[C@@H](NC(=O)[C@H](Cc1ccccc1)NC(=O)[C@H](CC(=O)O)NC(=O)[C@H](CCC(N)=O)NC(=O)[C@H](C)NC(=O)[C@H](CCCNC(=N)N)NC(=O)[C@H](CCCCNC(=O)COCCOCCNC(=O)COCCOCCNC(=O)CC[C@H](NC(=O)CCCCCCCCCCCCCCCCC(=O)O)C(=O)O)NC(=O)[C@H](CCCNC(=N)N)NC(=O)[C@H](CC(=O)O)NC(=O)[C@H](CC(C)C)NC(=O)[C@](C)(Cc1ccccc1)NC(=O)[C@H](CCCCN)NC(=O)[C@H](CO)NC(=O)[C@@H](NC(=O)[C@H](CC(=O)O)NC(=O)[C@H](CO)NC(=O)[C@@H](NC(=O)[C@H](Cc1ccccc1)NC(=O)[C@@H](NC(=O)CNC(=O)[C@H](CCC(N)=O)NC(=O)C(C)(C)NC(=O)[C@@H](N)Cc1c[nH]cn1)[C@@H](C)O)[C@@H](C)O)C(C)C)C(C)C)C(=O)N[C@@H](CC(C)C)C(=O)NC(C)(C)C(=O)N[C@@H](CCC(=O)O)C(N)=O

Assays:
[1] = target: human glucagon receptor (hGCGR) (human, UniProt P47871 26-477); experiment: cell-based or functional assay
[2] = target: human GLP-1 receptor (hGLP-1R) (human, UniProt P43220 24-463); experiment: cell-based or functional assay

Sequence of human glucagon receptor (hGCGR) (P47871 26-477): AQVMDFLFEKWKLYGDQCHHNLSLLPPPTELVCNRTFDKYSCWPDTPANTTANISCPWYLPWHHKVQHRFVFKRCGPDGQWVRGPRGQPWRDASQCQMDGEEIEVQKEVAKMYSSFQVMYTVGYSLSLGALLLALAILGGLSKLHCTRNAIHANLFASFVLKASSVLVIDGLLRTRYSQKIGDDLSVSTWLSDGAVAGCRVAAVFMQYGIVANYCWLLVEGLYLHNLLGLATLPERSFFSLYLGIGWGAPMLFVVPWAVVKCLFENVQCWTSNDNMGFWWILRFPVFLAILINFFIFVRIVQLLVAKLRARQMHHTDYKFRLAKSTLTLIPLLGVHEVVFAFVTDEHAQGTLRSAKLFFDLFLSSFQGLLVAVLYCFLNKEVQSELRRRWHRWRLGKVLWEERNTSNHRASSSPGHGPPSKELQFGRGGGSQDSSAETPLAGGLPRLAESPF

| Binder | hGluc-R EC50 (pM) [1] [pM] | hGLP-1R EC50 (pM) [2] [pM] |
| --- | --- | --- |
| B1 | 81 | 154 |
| B2 | 68.9 | 17.9 |
| B3 | 57.7 | 30.6 |
